# Source: patent US20120014876A1 (ACADEMISCH ZIEKENHUIS MAASTRICHT, published 2012)
# Bridges are numbered along the chain shown (N, C = ends). Where no end group is shown, it is not given here. rhodamine = not defined here; alkyl = not defined here
# Experiments:
# rat frizzled-2 receptor [1] = target: T1, rat frizzled-2 receptor (rat, UniProt Q08464 29-570); assay: cell-based or functional assay
# rat frizzled-1 receptor [2] = target: T2, rat frizzled-1 receptor (rat, UniProt Q08463 69-641); assay: cell-based or functional assay
# T2 sequence (Q08463 69-641): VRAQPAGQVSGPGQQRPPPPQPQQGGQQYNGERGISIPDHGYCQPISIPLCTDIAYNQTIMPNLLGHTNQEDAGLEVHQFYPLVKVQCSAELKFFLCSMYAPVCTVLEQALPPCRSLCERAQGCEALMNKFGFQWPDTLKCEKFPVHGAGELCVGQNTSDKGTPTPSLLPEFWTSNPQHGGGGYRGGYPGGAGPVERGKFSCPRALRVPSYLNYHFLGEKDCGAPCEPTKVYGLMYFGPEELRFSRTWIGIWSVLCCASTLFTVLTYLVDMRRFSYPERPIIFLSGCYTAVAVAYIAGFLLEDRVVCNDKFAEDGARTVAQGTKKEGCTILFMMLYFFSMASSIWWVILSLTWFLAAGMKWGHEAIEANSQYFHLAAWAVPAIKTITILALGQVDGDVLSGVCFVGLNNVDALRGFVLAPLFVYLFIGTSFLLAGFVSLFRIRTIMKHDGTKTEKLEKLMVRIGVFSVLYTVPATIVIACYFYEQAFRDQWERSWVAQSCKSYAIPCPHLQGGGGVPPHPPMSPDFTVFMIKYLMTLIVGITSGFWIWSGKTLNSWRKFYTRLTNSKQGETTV
# rat frizzled-2 receptor [3] = target: T1, rat frizzled-2 receptor; assay: cell-based or functional assay; remark: listed apart in the source
# rat frizzled-1 receptor [4] = target: T2, rat frizzled-1 receptor; assay: cell-based or functional assay; remark: listed apart in the source
# mouse Fzd-2 = target: T3, mouse Fzd-2 (mouse, UniProt Q9JIP6 29-570); assay: rhodamine-labeled UM206 on kidney and small intestine sections
# T3 construct: whole, on cells; also called mouse frizzled-2
# T3 sequence (Q9JIP6 29-570): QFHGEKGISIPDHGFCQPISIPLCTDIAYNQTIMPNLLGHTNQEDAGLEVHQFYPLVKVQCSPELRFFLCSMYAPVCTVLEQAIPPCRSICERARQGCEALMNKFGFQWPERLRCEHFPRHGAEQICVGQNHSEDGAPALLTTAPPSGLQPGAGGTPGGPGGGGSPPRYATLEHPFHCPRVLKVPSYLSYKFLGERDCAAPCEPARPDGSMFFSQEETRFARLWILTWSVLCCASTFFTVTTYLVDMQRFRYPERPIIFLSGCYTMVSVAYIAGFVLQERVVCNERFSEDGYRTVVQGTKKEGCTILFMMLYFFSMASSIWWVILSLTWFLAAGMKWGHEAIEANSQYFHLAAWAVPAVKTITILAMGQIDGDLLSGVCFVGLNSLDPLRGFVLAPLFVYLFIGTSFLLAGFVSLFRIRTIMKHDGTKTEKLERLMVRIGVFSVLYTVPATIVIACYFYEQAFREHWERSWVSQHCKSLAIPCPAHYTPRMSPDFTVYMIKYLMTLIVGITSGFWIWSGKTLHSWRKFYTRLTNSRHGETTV
# mouse Fzd-1 = target: T4, mouse Fzd-1 (mouse, UniProt O70421 69-642); assay: fluorescence imaging of small intestine and kidney sections
# T4 construct: whole, on cells; also called mouse frizzled-1
# T4 sequence (O70421 69-642): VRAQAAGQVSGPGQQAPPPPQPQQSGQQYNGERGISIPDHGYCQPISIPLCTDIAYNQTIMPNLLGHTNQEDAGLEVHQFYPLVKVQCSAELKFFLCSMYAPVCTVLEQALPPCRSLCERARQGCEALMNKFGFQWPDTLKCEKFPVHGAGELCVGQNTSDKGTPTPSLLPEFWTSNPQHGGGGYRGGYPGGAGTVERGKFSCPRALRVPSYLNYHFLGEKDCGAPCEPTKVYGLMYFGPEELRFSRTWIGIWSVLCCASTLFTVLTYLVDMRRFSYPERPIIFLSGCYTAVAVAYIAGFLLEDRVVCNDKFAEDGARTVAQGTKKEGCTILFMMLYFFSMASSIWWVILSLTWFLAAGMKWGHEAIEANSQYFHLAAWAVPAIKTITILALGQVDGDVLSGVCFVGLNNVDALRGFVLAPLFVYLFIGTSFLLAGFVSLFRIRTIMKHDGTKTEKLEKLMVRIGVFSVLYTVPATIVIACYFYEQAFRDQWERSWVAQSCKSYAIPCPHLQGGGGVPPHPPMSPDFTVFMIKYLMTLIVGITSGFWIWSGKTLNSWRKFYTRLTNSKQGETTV
# rat frizzled-2 receptor [5] = target: T1, rat frizzled-2 receptor; assay: inferred by the filing from inhibition curves of Wnt3a-induced luciferase activity in transfected HEK293-superTOPflash cells
# Protocol: To determine the inhibitory constant of UM206-8, HEK293-superTOPflash cells were transfected with either rFzd-1 or -2 and incubated with Wnt3a (10⁻⁹M) in the presence of increasing concentrations of either of the peptides (FIG. 15). For UM206, a biphasic inhibition curve was observed that was best fitted with a two-binding-state model.
# T1 sequence (Q08464 29-570): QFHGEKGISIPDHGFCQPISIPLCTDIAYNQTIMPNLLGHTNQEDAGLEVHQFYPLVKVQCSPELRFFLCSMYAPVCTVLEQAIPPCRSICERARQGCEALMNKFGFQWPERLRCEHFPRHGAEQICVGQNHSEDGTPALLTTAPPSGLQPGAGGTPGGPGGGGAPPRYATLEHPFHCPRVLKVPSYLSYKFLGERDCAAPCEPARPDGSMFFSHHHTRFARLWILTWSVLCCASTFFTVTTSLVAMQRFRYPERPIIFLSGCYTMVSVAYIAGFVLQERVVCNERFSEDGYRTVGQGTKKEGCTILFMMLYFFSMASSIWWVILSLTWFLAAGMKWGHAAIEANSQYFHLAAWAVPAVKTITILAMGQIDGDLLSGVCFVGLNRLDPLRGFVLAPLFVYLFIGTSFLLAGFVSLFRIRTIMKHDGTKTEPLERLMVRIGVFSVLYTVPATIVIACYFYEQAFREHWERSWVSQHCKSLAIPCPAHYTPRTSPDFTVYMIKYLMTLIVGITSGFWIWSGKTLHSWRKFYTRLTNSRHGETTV
Binder,"% of inhibition of Wnt3a-induced luciferase activity, peptide 1.10^-9 M (rat frizzled-2 receptor [1])","% of inhibition of Wnt3a-induced luciferase activity, peptide 1.10^-9 M (rat frizzled-1 receptor [2])",further results
CNKTSEAMDGCEL-NH2 (cysteine pairing not given here) [UM206 (7 G = A)],63.1%,52.6%,–
CNKTSEGMDGCAL-NH2 (cysteine pairing not given here) [UM206 (12 E = A)],85.5%,65.9%,–
CNKTSEGMDGAEL [UM206 (11 C = A)],84.9%,67.2%,–
CNKTAEGMDGCEL-NH2 (cysteine pairing not given here) [UM206 (5 S = A)],87.3%,74.3%,–
CAKTSEGMDGCEL-NH2 (cysteine pairing not given here) [UM206 (2 N = A)],79.5%,68%,–
CNKTSEGMAGCEL-NH2 (cysteine pairing not given here) [UM206 (9 D = A)],60.5%,40.5%,–
Ac-CNKTSEGMDGCEL-NH2 (disulfide 1-11) [Peptide UM206(S-S)],–,–,"EC50, luciferase activity (amount of agonist that yields 50% of maximum activity) (rat frizzled-2 receptor [3]): 20 nM; EC50, luciferase activity (amount of agonist that yields 50% of maximum activity) (rat frizzled-1 receptor [4]): 10 nM"
"Ac-CNK(rhodamine)TSEGMDGCEL-NH2 (cysteine pairing not given here; reading uncertain, UM206 with rhodamine on Lys3; end groups as UM206 (Ac-, -NH2) not restated; also called UM206-rhodamine; UM206-Rhodamine) [rhodamine-labeled UM206]",–,–,binding result (mouse Fzd-2): binds; binding result (mouse Fzd-1): binds
"Ac-CNKTSEGMDGCEL-NH2 (cysteine pairing not given here, Linear form, no disulfide bridge between the two cysteines; also called antagonist UM206) [Peptide UM206]",75.1%,72.2%,"fold higher affinity than to rFzd-1 (rat frizzled-2 receptor [5]): ~100 fold; IC50, inhibition of Wnt3a (10^-9 M)-induced luciferase activity, two-binding-state fit, high affinity site (rat frizzled-2 receptor [3]): 0.0169 nM; IC50, inhibition of Wnt3a-induced luciferase activity (rat frizzled-2 receptor [3]): 0.1 nM; IC50, inhibition of Wnt3a (10^-9 M)-induced luciferase activity, two-binding-state fit, major binding site (rat frizzled-1 receptor [4]): 2.1 nM; IC50, inhibition of Wnt3a-induced luciferase activity (rat frizzled-1 receptor [4]): 1 nM"
CNKTSAGMDGCEL-NH2 (cysteine pairing not given here) [UM206 (6 E = A)],84.7%,70.8%,–
CNKTSEGMDGCAA-NH2 (cysteine pairing not given here) [UM206 (12-13 EL = AA)],74.3%,66.8%,–
ANKTSEGMDGCEL [UM206 (1 C = A)],82.6%,70.8%,–
Wnt3a (ligand) SYPIWWSLAVGPQYSSLGSQPILCASIPGLVPKQLRFCRNYVEIMPSVAEGIKIGIQECQHQFRGRRWNCTTVHDSLAIFGPVLDKATRESAFVHAIASAGVAFAVTRSCAEGTAAICGCSSRHQGSPGKGWKWGGCSEDIEFGGMVSREFADARENRPDARSAMNRHNNEAGRQAIASHMHLKCKCHGLSGSCEVKTCWWSQPDFRAIGDFLKDKYDSASEMVVEKHRESRGWVETLRPRYTYFKVPTERDLVYYEASPNFCEPNPETGSFGTRDRTCNVSSHGIDGCDLLCCGRGHNARAERRREKCRCVFHWCCYVSCQECTRVYDVHTCK,–,–,"fold increase of luciferase activity (TOPflash reporter, HEK cells) (rat frizzled-2 receptor [3]): 12 fold"
"CNKASEAMAGCEL-NH2 (cysteine pairing not given here) [UM206 (4 T = A, 7 G = A, 9 D = A)]",17.5%,11.2%,–
ANKTSEGMDGAEL [UM206 (C = A)],8.39%,0%,–
C(alkyl)NKTSEGMDGC(alkyl)EL-NH2 (not fully specified (N-terminus); reading uncertain; also: alkyl group not given here) [UM206 (C = C-alkyl)],12.4%,1%,–
CNVSSHGIDGCDL-NH2 (cysteine pairing not given here) [peptide CNVSSHGIDGCDL (SEQ ID NO:18)],62.4%,45.3%,–
Ac-GIKECQYQFRHRRWNCSTVD-NH2 (cysteine pairing not given here) [Peptide UM207],–,–,"IC50, inhibition of Wnt3a (10^-9 M)-induced luciferase activity, single binding site fit (rat frizzled-2 receptor [3]): 15.2 nM; IC50, inhibition of Wnt3a (10^-9 M)-induced luciferase activity, single binding site fit (rat frizzled-1 receptor [4]): 40 nM"
CNKTSEGMDGC-NH2 (cysteine pairing not given here) [UM206 - (deletion of the C-terminal Glutamic acid and Leucine)],61.2%,18%,–
CNKTSEGMDGCEA-NH2 (cysteine pairing not given here) [UM206 (13 L = A)],86.5%,65.9%,–
CNKASEGMDGCEL-NH2 (cysteine pairing not given here) [UM206 (4 T = A)],59.4%,28.1%,–
CNATSEGMDGCEL-NH2 (cysteine pairing not given here) [UM206 (3 K = A)],84.9%,70.8%,–
SNKTSEGMDGSEL [UM206 (C = S)],17%,0%,–
CNKTSEGADGCEL-NH2 (cysteine pairing not given here) [UM206 (8 M = A)],85%,67.6%,–
CNKTSEGMDACEL-NH2 (cysteine pairing not given here) [UM206 (10 G = A)],83.3%,69.9%,–
